Data published in patent publication US20040234530.

T1: C1-esterase inhibitor (human plasma protease C1 inhibitor), purified or in human serum, P05155
T1 chain: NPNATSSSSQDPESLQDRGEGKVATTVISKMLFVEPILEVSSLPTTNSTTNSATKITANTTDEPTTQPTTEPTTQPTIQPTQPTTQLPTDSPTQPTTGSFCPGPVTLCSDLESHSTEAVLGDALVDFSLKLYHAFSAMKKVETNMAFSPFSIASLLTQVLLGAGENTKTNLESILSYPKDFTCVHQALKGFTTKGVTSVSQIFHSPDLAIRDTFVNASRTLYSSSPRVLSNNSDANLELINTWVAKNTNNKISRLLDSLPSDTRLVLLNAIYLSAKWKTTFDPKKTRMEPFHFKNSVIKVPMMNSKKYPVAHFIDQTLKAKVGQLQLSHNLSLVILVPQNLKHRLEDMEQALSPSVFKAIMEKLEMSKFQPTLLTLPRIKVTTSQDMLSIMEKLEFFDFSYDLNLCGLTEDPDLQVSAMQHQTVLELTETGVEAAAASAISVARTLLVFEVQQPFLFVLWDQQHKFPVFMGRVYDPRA

T2: α1-antichymotrypsin (Sigma, St. Louis, MO), P01011
T2 chain: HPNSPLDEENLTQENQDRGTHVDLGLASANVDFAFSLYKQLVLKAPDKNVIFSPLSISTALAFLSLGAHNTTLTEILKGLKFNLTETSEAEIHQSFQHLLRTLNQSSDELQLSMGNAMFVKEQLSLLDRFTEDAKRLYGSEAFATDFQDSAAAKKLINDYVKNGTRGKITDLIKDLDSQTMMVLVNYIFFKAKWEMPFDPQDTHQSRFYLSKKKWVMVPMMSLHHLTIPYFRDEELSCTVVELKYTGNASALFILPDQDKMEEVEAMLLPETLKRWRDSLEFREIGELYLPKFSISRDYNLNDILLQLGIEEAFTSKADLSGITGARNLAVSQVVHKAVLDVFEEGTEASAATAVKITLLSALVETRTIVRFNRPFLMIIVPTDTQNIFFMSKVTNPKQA

T3: α2-antiplasmin (Calbiochem, San Diego, CA), P08697
T3 chain: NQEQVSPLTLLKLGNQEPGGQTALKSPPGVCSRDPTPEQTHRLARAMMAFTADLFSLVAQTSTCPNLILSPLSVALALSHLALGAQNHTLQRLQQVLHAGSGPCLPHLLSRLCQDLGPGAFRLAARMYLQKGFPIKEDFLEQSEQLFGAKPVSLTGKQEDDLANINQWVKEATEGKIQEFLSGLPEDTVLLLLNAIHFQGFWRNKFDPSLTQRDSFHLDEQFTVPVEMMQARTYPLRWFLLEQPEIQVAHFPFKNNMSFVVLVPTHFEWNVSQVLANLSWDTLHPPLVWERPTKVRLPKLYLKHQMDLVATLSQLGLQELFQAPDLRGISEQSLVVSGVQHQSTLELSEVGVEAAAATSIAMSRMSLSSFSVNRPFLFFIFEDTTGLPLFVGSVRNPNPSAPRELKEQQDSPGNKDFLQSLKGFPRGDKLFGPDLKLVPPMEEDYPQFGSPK

T4: α2-macroglobulin (Calbiochem, San Diego, CA), P01023
T4 chain: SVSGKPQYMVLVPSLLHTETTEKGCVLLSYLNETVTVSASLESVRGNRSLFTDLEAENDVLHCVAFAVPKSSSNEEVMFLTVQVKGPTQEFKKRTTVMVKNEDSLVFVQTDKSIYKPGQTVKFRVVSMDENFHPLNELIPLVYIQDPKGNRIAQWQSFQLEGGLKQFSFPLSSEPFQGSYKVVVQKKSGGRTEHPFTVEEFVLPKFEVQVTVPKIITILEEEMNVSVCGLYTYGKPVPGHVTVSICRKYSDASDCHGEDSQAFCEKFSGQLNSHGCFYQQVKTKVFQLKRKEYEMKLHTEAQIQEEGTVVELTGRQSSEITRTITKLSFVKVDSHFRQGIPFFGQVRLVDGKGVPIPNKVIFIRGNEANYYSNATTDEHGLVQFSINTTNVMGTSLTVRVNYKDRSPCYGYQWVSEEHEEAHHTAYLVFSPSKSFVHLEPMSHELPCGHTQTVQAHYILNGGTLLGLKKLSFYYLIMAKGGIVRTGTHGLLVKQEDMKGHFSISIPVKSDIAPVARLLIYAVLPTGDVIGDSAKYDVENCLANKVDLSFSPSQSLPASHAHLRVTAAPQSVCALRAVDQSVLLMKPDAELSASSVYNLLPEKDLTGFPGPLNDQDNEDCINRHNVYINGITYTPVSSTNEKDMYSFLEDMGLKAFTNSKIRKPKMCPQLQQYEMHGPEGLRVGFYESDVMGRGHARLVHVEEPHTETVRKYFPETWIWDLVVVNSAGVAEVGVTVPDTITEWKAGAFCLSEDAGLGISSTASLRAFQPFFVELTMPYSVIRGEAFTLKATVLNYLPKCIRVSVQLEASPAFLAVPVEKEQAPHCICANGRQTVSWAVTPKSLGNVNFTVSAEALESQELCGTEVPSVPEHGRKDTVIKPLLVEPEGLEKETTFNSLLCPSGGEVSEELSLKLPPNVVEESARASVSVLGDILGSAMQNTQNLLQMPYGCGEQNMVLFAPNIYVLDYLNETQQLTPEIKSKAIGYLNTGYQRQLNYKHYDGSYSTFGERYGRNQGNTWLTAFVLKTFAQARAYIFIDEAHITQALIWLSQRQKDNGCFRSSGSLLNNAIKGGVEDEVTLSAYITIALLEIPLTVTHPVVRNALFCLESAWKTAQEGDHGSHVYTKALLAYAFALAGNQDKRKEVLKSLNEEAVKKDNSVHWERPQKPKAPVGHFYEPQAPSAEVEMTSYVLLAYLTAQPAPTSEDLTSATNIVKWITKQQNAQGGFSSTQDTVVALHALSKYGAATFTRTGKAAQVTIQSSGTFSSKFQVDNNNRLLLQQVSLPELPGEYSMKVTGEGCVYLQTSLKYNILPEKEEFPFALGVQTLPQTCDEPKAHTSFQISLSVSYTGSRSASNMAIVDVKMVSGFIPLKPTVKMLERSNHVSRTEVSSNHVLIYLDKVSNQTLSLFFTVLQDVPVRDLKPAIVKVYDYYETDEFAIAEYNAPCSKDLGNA

T5: C-serp(98), a recombinant C1-INH molecule lacking the N-terminal amino acids 1-97 and containing only the serpin domain, P05155
T5 chain: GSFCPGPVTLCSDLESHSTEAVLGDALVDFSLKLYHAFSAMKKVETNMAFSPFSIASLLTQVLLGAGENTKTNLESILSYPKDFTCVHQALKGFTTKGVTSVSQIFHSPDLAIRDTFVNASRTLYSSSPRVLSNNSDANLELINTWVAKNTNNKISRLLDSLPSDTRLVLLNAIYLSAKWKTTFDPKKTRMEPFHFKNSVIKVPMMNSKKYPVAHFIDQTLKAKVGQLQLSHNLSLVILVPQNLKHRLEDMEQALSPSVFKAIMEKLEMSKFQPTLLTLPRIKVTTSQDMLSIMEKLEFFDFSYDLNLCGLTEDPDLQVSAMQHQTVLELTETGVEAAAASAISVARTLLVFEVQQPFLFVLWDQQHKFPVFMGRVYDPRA

T6: recombinant, full-length human C1-INH (hC1-INH) expressed in COS-7 cells, 35S-methionine-labeled, P05155
T6 chain: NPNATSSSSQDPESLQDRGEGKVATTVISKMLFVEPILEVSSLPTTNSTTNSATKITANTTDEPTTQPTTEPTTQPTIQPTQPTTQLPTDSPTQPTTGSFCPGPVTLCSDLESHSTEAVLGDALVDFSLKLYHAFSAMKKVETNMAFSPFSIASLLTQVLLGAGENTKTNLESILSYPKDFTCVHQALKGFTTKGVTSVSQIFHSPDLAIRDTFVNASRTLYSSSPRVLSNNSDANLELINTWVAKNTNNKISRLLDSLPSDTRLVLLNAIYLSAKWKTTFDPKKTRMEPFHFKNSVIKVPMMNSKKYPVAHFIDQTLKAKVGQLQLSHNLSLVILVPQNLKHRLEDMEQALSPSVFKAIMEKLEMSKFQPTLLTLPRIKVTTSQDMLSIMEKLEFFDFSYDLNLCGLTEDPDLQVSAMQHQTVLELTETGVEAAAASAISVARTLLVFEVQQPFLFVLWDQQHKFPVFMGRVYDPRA

B1: Pseudomonas aeruginosa elastase (Calbiochem EC# 3.4.24.26) (protein)
chain: AEAGGPGGNQKIGKYTYGSDYGPLIVNDRCEMDDGNVITVDMNSSTDDSKTTPFRFACPTNTYKQVNGAYSPLNDAHFFGGVVFKLYRDWFGTSPLTHKLYMKVHYGRSVENAYWDGTAMLFGDGATMFYPLVSLDVAAHEVSHGFTEQNSGLIYRGQSGGMNEAFSDMAGEAAEFYMRGKNDFLIGYDIKKGSGALRYMDQPSRDGRSIDNASQYYNGIDVHHSSGVYNRAFYLLANSPGWDTRKAFEVFVDANRYYWTATSNYNSGACGVIRSAQNRNYSAADVTRAFSTVGVTCPSAL
B2: StcE-His (recombinant his-tagged form of StcE, from pWL107 in BL21(DE3), strain WAM2572) (protein)
chain: ADNNSAIYFNTSQPINDLQGSLAAEVKFAQSQILPAHPKEGDSQPHLTSLRKSLLLVRPVKADDKTPVQVEARDDNNKILGTLTLYPPSSLPDTIYHLDGVPEGGIDFTPHNGTKKIINTVAEVNKLSDASGSSIHSHLTNNALVEIHTANGRWVRDIYLPQGPDLEGKMVRFVSSAGYSSTVFYGDRKVTLSVGNTLLFKYVNGQWFRSGELENNRITYAQHIWSAELPAHWIVPGLNLVIKQGNLSGRLNDIKIGAPGELLLHTIDIGMLTTPRDRFDFAKDKEAHREYFQTIPVSRMIVNNYAPLHLKEVMLPTGELLTDMDPGNGGWHSGTMRQRIGKELVSHGIDNANYGLNSTAGLGENSHPYVVAQLAAHNSRGNYANGIQVHGGSGGGGIVTLDSTLGNEFSHEVGHNYGLGHYVDGFKGSVHRSAENNNSTWGWDGDKKRFIPNFYPSQTNEKSCLNNQCQEPFDGHKFGFDAMAGGSPFSAANRFTMYTPNSSAIIQRFFENKAVFDSRSSTGFSKWNADTQEMEPYEHTIDRAEQITASVNELSESKMAELMAEYAVVKVHMWNGNWTRNIYIPTASADNRGSILTINHEAGYNSYLFINGDEKVVSQGYKKSFVSDGQFWKERDVVDTREARKPEQFGVPVTTLVGYYDPEGTLSSYIYPAMYGAYGFTYSDDSQNLSDNDCQLQVDTKEGQLRFRLANHRANNTVMNKFHINVPTESQPTQATLVCNNKILDTKSLTPAPEGLTYTVNGQALPAKENEGCIVSVNSGKRYCLPVGQRSGYSLPDWIVGQEVYVDSGAKAKVLLSDWDNLSYNRIGEFVGNVNPADMKKVKAWNGQYLDFSKPRSMRVVYKHHHHHH
B3: StcE′-His (lacking the StcE N-terminal signal sequence, 6xHis tag at the C-terminus; from pTB4, strain WAM2751) (protein)
chain: ADNNSAIYFNTSQPINDLQGSLAAEVKFAQSQILPAHPKEGDSQPHLTSLRKSLLLVRPVKADDKTPVQVEARDDNNKILGTLTLYPPSSLPDTIYHLDGVPEGGIDFTPHNGTKKIINTVAEVNKLSDASGSSIHSHLTNNALVEIHTANGRWVRDIYLPQGPDLEGKMVRFVSSAGYSSTVFYGDRKVTLSVGNTLLFKYVNGQWFRSGELENNRITYAQHIWSAELPAHWIVPGLNLVIKQGNLSGRLNDIKIGAPGELLLHTIDIGMLTTPRDRFDFAKDKEAHREYFQTIPVSRMIVNNYAPLHLKEVMLPTGELLTDMDPGNGGWHSGTMRQRIGKELVSHGIDNANYGLNSTAGLGENSHPYVVAQLAAHNSRGNYANGIQVHGGSGGGGIVTLDSTLGNEFSHEVGHNYGLGHYVDGFKGSVHRSAENNNSTWGWDGDKKRFIPNFYPSQTNEKSCLNNQCQEPFDGHKFGFDAMAGGSPFSAANRFTMYTPNSSAIIQRFFENKAVFDSRSSTGFSKWNADTQEMEPYEHTIDRAEQITASVNELSESKMAELMAEYAVVKVHMWNGNWTRNIYIPTASADNRGSILTINHEAGYNSYLFINGDEKVVSQGYKKSFVSDGQFWKERDVVDTREARKPEQFGVPVTTLVGYYDPEGTLSSYIYPAMYGAYGFTYSDDSQNLSDNDCQLQVDTKEGQLRFRLANHRANNTVMNKFHINVPTESQPTQATLVCNNKILDTKSLTPAPEGLTYTVNGQALPAKENEGCIVSVNSGKRYCLPVGQRSGYSLPDWIVGQEVYVDSGAKAKVLLSDWDNLSYNRIGEFVGNVNPADMKKVKAWNGQYLDFSKPRSMRVVYKHHHHHH

Columns and labels:
[1] = molecular target: BODIPY FL-conjugated casein (EnzChek Protease Assay Kit, Molecular Probes)
[2] = molecular target: T1, C1-esterase inhibitor (human plasma …)
[3] = molecular target: Elastin (Sigma, St. Louis, MO)
[4] = molecular target: Gelatin (BioRad, Hercules, CA)
[5] = molecular target: antithrombin (Enzyme Research Labs, South Bend, IN), P01008
[6] = molecular target: collagen IV (Rockland, Gilbertsville, PA)
[7] = molecular target: fibronectin (Calbiochem, San Diego, CA), P02751
[8] = molecular target: T2, α1-antichymotrypsin (Sigma, St. Louis, …)
[9] = molecular target: α1-antitrypsin (Sigma, St. Louis, MO), P01009
[10] = molecular target: T3, α2-antiplasmin (Calbiochem, San Diego, …)
[11] = molecular target: T4, α2-macroglobulin (Calbiochem, San …)
[12] = molecular target: serum albumin (New England Biolabs, Beverly, MA)
[13] = molecular target: von Willebrand factor (gift from Dr. D. Mosher, UW-Madison), P04275
[14] = molecular target: T5, C-serp(98), a recombinant C1-INH …
[15] = molecular target: T6, recombinant, full-length human C1-INH …

Chain of fibronectin (Calbiochem, San Diego, CA), P02751 (P02751 32-2477): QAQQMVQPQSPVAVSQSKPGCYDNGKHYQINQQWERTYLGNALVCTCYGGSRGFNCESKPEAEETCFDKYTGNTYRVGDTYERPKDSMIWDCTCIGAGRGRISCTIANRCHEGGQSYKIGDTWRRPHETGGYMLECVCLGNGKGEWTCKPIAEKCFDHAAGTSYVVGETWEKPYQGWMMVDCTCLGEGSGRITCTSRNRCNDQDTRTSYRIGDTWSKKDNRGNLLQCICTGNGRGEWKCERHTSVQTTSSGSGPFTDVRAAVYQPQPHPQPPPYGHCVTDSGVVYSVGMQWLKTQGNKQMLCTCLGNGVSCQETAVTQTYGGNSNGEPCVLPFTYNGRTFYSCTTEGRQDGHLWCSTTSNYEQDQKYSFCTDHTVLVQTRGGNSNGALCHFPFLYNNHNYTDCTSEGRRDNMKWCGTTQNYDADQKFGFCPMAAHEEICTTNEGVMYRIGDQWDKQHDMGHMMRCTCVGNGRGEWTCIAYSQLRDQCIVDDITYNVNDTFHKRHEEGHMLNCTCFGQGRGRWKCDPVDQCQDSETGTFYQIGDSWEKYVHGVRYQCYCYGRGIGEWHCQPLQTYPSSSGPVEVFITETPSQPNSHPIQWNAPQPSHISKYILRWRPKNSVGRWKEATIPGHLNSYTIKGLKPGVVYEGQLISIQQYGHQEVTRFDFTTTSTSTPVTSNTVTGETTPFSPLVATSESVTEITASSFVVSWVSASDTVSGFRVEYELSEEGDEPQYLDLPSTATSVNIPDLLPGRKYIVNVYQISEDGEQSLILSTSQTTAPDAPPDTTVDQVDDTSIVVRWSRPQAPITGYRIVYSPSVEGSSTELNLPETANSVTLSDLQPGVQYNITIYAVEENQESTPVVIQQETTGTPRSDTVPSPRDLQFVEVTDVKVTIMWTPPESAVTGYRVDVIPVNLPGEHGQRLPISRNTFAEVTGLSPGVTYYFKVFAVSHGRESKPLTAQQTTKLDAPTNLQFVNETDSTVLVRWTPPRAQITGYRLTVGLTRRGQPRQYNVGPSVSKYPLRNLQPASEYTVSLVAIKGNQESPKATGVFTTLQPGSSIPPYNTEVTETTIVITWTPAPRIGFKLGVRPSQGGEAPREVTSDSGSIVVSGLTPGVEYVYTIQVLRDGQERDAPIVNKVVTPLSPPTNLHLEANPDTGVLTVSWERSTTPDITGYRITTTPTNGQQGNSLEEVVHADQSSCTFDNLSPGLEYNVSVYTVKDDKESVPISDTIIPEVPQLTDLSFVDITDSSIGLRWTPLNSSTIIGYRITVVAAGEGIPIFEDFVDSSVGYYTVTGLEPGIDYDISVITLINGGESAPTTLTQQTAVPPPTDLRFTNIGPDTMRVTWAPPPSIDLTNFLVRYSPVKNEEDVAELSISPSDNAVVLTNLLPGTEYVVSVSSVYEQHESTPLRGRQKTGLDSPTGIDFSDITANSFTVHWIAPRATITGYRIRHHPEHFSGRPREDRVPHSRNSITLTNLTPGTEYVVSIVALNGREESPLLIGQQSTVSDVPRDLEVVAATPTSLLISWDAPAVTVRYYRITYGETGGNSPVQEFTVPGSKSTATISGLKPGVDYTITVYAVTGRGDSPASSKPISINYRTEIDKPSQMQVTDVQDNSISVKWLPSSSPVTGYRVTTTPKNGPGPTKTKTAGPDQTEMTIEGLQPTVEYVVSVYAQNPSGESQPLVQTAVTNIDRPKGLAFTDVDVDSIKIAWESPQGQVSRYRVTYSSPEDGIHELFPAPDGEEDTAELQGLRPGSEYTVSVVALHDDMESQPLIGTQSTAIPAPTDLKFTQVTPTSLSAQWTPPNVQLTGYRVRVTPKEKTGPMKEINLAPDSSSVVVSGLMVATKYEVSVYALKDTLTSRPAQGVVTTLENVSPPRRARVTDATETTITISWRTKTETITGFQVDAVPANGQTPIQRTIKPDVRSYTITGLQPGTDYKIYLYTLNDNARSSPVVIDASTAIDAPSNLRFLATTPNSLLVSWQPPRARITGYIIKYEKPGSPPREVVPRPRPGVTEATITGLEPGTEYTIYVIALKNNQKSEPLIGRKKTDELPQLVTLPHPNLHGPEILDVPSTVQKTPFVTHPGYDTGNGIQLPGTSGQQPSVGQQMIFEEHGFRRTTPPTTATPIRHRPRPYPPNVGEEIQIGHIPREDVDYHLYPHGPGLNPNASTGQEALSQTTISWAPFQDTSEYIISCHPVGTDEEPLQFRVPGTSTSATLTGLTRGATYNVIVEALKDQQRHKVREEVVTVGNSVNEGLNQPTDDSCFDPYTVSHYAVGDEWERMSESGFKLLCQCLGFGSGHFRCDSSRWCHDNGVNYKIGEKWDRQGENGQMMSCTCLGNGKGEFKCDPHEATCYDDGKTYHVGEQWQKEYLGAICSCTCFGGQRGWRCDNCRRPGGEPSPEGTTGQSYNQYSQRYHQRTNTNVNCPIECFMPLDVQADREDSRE
Chain of antithrombin (Enzyme Research Labs, South Bend, IN), P01008 (P01008 whole entry, looked up): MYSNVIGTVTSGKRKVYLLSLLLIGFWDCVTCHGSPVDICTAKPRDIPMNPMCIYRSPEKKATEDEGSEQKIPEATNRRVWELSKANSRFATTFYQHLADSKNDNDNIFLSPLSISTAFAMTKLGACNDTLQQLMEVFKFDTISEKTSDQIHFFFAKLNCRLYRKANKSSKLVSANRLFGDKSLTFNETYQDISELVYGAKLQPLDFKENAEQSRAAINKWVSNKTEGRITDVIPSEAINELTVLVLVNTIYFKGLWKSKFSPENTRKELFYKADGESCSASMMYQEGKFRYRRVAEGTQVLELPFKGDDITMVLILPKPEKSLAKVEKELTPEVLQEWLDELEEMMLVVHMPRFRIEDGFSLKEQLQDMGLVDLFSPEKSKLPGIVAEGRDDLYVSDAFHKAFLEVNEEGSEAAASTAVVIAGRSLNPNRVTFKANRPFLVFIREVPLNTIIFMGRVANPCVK
Chain of α1-antitrypsin (Sigma, St. Louis, MO), P01009 (P01009 whole entry, looked up): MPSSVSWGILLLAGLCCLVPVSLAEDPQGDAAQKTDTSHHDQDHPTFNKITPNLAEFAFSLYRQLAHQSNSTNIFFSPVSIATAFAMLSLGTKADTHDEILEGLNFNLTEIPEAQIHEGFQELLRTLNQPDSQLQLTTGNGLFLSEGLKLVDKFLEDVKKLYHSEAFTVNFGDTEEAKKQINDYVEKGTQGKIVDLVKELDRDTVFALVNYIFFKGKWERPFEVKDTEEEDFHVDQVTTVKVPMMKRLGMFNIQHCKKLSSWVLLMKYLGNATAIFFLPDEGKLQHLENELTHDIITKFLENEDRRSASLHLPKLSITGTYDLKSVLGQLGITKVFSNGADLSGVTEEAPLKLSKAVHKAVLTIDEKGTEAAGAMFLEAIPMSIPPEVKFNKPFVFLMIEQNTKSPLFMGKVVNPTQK

Protein | fluorescent measurement of casein degradation [1] | Proteolysis of substrates [2] | Proteolysis of substrates [3] | Proteolysis of substrates [4] | Proteolysis of substrates [5] | Proteolysis of substrates [6] | Proteolysis of substrates [7] | Proteolysis of substrates [8] | Proteolysis of substrates [9] | Proteolysis of substrates [10] | Proteolysis of substrates [11] | Proteolysis of substrates [12] | Proteolysis of substrates [13] | cleavage of 35S-labeled recombinant protein (immunoprecipitation, SDS-PAGE) [14] | cleavage of 35S-labeled recombinant protein (immunoprecipitation, SDS-PAGE) [15]
B1 | elastase was able to act on casein at lower concentrations (range: 0.5 ng to 1 µg/unit of volume) | + | + | + | + | - | + | + | + | + | + |  |  |  | 
B2 | StcE-His was unable to degrade casein even at high protein concentrations (up to 6.4 µg/unit of volume) | + | - | - | - | - | - | - | - | - | - | - | - |  | 
B3 |  |  |  |  |  |  |  |  |  |  |  |  |  | C-serp(98) was unaffected by the protease | only hC1-INH was cleaved by StcE′-His
